Data on two molecules can be found in patent publication US20240417428A1 (ZHEJIANG UNIVERSITY, published 2024).

Targets include Nav1.5; TRPA1; TRPV3; TRPM2; Nav1.7; TRPV1; TRPM4-K1045A.
Test in all cases: cell-based or functional assay
Assay [1] deals with T1, TRPV2.
T1 sequence (Q9Y5S1 whole entry, species assumed, looked up): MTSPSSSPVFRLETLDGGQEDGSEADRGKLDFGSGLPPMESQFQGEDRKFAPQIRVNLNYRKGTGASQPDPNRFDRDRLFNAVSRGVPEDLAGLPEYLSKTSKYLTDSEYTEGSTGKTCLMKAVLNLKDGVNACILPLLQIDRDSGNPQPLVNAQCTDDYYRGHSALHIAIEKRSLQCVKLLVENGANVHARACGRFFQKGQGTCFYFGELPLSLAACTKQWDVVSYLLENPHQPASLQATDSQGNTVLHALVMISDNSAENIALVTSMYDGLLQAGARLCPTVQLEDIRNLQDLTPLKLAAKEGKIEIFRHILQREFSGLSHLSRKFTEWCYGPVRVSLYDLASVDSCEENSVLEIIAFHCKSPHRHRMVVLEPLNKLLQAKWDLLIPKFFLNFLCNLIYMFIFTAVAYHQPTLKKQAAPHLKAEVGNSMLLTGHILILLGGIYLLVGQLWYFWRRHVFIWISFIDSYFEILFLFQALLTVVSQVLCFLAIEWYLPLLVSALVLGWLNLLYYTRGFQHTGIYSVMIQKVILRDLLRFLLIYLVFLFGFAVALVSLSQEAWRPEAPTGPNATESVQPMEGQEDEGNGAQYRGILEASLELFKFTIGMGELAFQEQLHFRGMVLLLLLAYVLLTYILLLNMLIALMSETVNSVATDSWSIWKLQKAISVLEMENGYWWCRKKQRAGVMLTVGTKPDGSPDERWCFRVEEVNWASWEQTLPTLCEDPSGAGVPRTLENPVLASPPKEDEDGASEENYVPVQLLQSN

Assay [2] deals with T1, TRPV2. The source holds these as a separate data set.
Assay [3] deals with T2, mouse TRPM8 channel (mouse, UniProt Q8R4D5 1-1104).
T2 sequence (Q8R4D5 whole entry): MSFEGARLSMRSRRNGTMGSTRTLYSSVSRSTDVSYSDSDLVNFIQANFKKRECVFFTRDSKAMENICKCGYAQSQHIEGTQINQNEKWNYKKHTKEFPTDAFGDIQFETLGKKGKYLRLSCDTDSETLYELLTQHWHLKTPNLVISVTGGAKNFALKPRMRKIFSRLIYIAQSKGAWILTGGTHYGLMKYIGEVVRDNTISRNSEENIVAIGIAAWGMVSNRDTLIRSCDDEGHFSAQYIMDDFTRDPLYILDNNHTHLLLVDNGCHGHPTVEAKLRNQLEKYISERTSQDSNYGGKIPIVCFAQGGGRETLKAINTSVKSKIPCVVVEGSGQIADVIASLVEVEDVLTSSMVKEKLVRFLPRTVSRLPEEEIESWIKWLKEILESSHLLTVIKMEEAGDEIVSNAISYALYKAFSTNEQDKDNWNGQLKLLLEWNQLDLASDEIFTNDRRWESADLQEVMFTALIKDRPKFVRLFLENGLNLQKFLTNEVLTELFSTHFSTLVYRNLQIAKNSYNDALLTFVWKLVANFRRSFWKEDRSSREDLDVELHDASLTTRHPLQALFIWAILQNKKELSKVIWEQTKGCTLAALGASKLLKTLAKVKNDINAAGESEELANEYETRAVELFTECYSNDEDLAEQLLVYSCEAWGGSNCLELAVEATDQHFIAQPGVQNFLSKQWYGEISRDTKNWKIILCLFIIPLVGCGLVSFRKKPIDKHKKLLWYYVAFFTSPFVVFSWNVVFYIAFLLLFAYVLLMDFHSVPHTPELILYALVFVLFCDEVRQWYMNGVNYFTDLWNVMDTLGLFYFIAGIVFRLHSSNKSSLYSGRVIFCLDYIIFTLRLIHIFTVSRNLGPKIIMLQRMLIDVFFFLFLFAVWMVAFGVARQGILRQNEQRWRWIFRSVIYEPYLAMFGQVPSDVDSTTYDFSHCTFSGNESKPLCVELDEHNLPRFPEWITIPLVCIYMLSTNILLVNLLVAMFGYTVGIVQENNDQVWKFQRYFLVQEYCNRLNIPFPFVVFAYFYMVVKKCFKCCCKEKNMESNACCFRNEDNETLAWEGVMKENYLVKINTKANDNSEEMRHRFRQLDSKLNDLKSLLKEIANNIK
For assay [4], the target named is T2, mouse TRPM8 channel. This is another data set of the same source.

Bridges are numbered along the chain shown (N, C = ends). Where no end group is shown, it is not given here. Where only a bound is given, the exact number is not on record here.

Chain of TRPV3 (Q8NET8 whole entry): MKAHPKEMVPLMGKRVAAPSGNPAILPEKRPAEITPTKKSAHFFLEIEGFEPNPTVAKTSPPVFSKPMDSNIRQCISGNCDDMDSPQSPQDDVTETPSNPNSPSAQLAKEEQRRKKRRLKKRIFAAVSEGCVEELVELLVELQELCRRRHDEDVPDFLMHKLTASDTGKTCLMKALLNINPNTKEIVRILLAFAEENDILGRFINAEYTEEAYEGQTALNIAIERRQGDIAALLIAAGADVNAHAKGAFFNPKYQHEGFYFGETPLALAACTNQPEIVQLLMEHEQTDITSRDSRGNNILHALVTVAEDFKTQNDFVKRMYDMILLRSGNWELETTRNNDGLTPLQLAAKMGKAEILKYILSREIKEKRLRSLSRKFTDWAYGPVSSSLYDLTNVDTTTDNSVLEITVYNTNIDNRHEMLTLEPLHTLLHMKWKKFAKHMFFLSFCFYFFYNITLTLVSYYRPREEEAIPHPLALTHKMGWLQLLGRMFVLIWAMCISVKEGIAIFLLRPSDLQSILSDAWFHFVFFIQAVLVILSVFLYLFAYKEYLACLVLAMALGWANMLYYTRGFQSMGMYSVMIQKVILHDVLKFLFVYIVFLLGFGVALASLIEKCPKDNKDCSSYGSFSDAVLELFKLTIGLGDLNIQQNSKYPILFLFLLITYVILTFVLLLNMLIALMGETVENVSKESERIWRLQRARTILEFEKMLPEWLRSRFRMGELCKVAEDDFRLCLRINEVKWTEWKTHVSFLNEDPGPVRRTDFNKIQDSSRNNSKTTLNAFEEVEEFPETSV
Chain of TRPA1 (O75762 whole entry): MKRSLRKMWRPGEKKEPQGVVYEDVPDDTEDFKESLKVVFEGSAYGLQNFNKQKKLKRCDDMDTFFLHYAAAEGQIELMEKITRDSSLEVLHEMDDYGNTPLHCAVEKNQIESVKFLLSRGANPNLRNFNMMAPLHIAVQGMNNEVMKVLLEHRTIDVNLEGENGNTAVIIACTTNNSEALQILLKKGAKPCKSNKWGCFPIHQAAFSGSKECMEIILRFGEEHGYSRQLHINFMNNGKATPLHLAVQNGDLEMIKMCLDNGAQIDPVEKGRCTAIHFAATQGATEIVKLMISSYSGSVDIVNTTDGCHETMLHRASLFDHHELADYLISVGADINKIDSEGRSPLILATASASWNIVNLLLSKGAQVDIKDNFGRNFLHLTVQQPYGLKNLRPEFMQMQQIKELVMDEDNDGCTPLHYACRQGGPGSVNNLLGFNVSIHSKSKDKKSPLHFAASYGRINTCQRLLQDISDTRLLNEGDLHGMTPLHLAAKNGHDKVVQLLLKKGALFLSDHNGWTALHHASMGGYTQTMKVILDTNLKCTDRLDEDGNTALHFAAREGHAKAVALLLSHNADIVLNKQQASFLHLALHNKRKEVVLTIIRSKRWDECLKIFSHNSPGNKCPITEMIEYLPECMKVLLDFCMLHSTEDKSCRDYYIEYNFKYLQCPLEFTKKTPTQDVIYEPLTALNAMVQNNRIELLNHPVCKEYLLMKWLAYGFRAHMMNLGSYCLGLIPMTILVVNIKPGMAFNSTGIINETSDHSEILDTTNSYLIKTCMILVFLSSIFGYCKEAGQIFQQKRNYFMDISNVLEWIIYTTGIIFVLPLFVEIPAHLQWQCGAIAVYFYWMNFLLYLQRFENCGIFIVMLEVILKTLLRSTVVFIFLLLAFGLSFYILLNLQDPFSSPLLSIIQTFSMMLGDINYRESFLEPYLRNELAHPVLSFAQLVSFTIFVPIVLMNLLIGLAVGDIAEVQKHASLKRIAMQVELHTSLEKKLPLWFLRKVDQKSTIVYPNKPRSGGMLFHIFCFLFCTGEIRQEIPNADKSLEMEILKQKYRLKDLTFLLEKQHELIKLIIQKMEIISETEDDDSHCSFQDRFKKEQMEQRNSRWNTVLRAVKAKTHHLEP

As for CRRDRARHYRQRC (disulfide 1-13) [polypeptide DeC-1.2], the “half-inhibitory concentration (IC50), electrophysiology” value in the assay with TRPV2 [1] is roughly 10 µM. The “IC50, inhibition of sodium channel current, electrophysiology” value with Nav1.5 and with Nav1.7 was greater than 100 µM in each case. The “IC50, inhibition of channel current, electrophysiology” value with TRPA1 is greater than 100 µM. Besides, the “IC50, inhibition of ligand-activated channel current, electrophysiology” value in the assay with TRPV3 is greater than 100 µM; with TRPM2 it was greater than 100 µM; in the assay with TRPV2 [2] it was greater than 5 µM; in the assay with TRPV1 it was greater than 100 µM; with TRPM4-K1045A it was greater than 10 µM. In addition, the “IC50, inhibition of menthol-activated TRPM8 current, whole-cell electrophysiology” value in the assay with mouse TRPM8 channel [3] came to 4.5 nM.
As for CRNSRAAHDSQKC (disulfide 1-13) [polypeptide DeC-1.1], the “half-inhibitory concentration (IC50), electrophysiology” value with mouse TRPM8 channel [4] was 133 µM.
